Source: PMC8533642 (Journal of medicinal chemistry, 2021)

Experiments:
[1] = target: mouse melanocortin-3 receptor (mouse) (UniProt P33033)
[2] = target: mouse melanocortin-4 receptor (mouse) (UniProt P56450)
[3] = target: mouse melanocortin-3 receptor (mouse) (UniProt P33033); remark: listed apart in the source
[4] = target: mouse melanocortin-4 receptor (mouse) (UniProt P56450); remark: listed apart in the source
[5] = target: mouse melanocortin-5 receptor (mouse) (UniProt P41149)
[6] = target: mouse melanocortin-1 receptor (mouse) (UniProt Q01727)
Sequence of mouse melanocortin-1 receptor (mouse) (Q01727 whole entry): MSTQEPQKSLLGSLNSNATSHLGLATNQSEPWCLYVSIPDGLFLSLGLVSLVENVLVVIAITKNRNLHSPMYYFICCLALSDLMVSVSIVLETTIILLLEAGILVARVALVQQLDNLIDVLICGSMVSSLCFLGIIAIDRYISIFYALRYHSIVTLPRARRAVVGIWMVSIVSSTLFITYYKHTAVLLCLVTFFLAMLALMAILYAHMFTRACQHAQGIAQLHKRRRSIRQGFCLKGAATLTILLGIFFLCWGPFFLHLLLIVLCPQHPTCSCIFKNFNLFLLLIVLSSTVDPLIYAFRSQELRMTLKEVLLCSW

Sequence of mouse melanocortin-3 receptor (mouse) (P33033 whole entry): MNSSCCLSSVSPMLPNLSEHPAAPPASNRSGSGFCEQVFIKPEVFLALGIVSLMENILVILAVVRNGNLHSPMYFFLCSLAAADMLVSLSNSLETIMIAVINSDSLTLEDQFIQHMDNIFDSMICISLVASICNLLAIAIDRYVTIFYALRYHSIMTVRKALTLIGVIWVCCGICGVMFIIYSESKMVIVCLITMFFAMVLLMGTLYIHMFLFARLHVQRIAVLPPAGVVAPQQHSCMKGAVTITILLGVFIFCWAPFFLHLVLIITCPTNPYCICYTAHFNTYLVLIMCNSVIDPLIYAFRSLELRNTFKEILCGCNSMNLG
Sequence of mouse melanocortin-4 receptor (mouse) (P56450 whole entry): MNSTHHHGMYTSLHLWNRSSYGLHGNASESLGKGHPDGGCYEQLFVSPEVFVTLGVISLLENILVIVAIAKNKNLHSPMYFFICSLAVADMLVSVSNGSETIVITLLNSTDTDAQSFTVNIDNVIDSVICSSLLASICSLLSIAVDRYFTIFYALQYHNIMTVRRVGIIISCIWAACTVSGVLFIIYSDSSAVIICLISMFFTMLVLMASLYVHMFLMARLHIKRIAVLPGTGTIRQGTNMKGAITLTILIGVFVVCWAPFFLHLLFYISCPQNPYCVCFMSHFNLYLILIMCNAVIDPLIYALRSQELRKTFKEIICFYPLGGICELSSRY
Sequence of mouse melanocortin-5 receptor (mouse) (P41149 whole entry): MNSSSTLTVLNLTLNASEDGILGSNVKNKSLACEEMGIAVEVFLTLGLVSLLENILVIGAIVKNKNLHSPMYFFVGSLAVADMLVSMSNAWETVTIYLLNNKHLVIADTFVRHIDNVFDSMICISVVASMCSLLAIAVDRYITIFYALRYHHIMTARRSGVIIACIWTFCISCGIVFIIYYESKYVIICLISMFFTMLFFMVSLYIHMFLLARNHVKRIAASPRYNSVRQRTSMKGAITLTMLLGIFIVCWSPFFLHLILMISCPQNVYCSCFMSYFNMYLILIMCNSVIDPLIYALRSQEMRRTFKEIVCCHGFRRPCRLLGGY

Row | Substance | pA2, antagonism of NDP-MSH at mMC3R, Schild analysis, cAMP AlphaScreen [1] | pA2, antagonism of NDP-MSH at mMC4R, Schild analysis, cAMP AlphaScreen [2] | agonist EC50, cAMP AlphaScreen [3] [µM] | agonist EC50, cAMP AlphaScreen [4] [µM] | agonist EC50, cAMP AlphaScreen [5] [µM] | % receptor activation relative to NDP-MSH (partial agonist), cAMP AlphaScreen [6] [%] | apparent EC50 (partial agonist), cAMP AlphaScreen [6] [µM] | % of maximal NDP-MSH response at 100 μM, cAMP AlphaScreen [3] [%] | % of maximal NDP-MSH response at 100 μM, cAMP AlphaScreen [4] [%] | % of maximal NDP-MSH response at 100 μM, cAMP AlphaScreen [5] [%] | agonist EC50, cAMP AlphaScreen [6] [µM] | % of maximal NDP-MSH response at 100 μM, cAMP AlphaScreen [6] [%] | antagonist Ki = 10^-(pA2), NDP-MSH at mMC3R, cAMP AlphaScreen [1] [µM] | antagonist Ki = 10^-(pA2), NDP-MSH at mMC4R, cAMP AlphaScreen [2] [nM]
1 | Ac-DNal(2’)-Arg-DNal(2’)-Arg-NH2 (peptide) | 6.1 | 8.3 | > 100 | > 100 | > 100 | 60 | 1 |  |  |  |  |  |  | 
2 | Ac-DNal(2’)-Arg-DNal(2’)-DLys-NH2 (peptide) |  | 8.2 | > 100 | > 100 | > 100 | 30 | 6 |  |  |  |  |  |  | 
3 | Ac-DNal(2’)-Arg-DNal(2’)-DNal(2’)-NH2 (peptide) | 5.7 | 6.3 |  |  |  | 85 | 5 | 50 | 45 | 20 |  |  |  | 
4 | Ac-DNal(2’)-Arg-DPhe(pI)-Arg-NH2 (peptide) | 7.1 | 8.6 | > 100 | > 100 | > 100 |  |  |  |  |  | 0.04 |  |  | 
5 | Ac-DNal(2’)-Arg-DPhe(pI)-DLys-NH2 (peptide) | 6.9 | 8.5 | > 100 | > 100 | > 100 |  |  |  |  |  | 0.22 |  |  | 
6 | Ac-DNal(2’)-Arg-DPhe(pI)-DNal(2’)-NH2 (peptide) | 6.1 | 6.5 |  |  |  |  |  | 40 | 30 | 40 |  |  |  | 
7 | Ac-DNal(2’)-Arg-Nal(2’)-DNal(2’)-NH2 (peptide) |  | 6.7 |  |  |  |  |  | 30 | 30 | 25 |  | 40 |  | 
8 | Ac-DNal(2’)-DNal(2’)-DNal(2’)-Arg-NH2 (peptide) | < 5.5 | < 5.5 |  |  | 0.13 |  |  | 35 | 25 |  |  | 30 |  | 
9 | Ac-DNal(2’)-DNal(2’)-DNal(2’)-DLys-NH2 (peptide) | < 5.5 | < 5.5 | > 100 | > 100 | > 100 |  |  |  |  |  |  | 55 |  | 
10 | Ac-DNal(2’)-DNal(2’)-DPhe(pI)-Arg-NH2 (peptide) | < 5.5 | < 5.5 | > 100 | > 100 |  |  |  |  |  |  |  | 25 |  | 
11 | Ac-DNal(2’)-DNal(2’)-DPhe(pI)-DLys-NH2 (peptide) | < 5.5 | < 5.5 | > 100 | > 100 | > 100 |  |  |  |  |  |  | 20 |  | 
12 | Ac-DNal(2’)-DNal(2’)-Nal(2’)-Arg-NH2 (peptide) |  |  | > 100 | > 100 |  |  |  |  |  | 40 |  | 55 |  | 
13 | Ac-DNal(2’)-DNal(2’)-Nal(2’)-DLys-NH2 (peptide) |  |  | > 100 | > 100 | > 100 |  |  |  |  |  |  | 45 |  | 
14 | Ac-DNal(2’)-DNal(2’)-Trp-DLys-NH2 (peptide) | 5.8 | 6.7 | > 100 |  | > 100 |  |  |  | 30 |  |  | 25 | 1.6 | 200
15 | Ac-DPhe(pI)-Arg-DNal(2’)-Arg-NH2 (peptide) | 6.9 | 8.3 | > 100 | > 100 | > 100 | 65 | 0.4 |  |  |  |  |  |  | 
16 | Ac-DPhe(pI)-Arg-DNal(2’)-DLys-NH2 (peptide) | 7.2 | 8.6 | > 100 | > 100 | > 100 | 30 | 3.5 |  |  |  |  |  |  | 
17 | Ac-DPhe(pI)-Arg-DNal(2’)-DNal(2’)-NH2 (peptide) | 6.1 | 6.7 |  |  |  |  |  | 45 | 45 | 20 |  | 80 |  | 
